Consider 2 substances from US20230346919A1.

For this assay, the target named is Spike (S) protein of the SARS-CoV-2 clinical isolate, strain 2019 n-CoV/USA_WA1/2020 (SARS-CoV-2 strain 2019 n-CoV/USA_WA1/2020) (UniProt P0DTC2). Nature of the assay: cell-based or functional assay.

Turning to “human ACE2-Fc (hACE2 residues 1-615, HRV-3C site, human IgG1 Fc) (from UniProt Q9BYF1 18-615) (Fc fusion)”, the EC50, inhibition of SARS-CoV-2 infection (FRNT, Vero E6 cells) was determined as 12.6 µg/mL.
In the case of mAb S309 (antibody), the EC50, neutralization of SARS-CoV-2 (FRNT, Vero E6 cells) was found to be 0.081 µg/mL.
